This note sets out measurements from the RNAGym collection of RNA variant scans (doi:10.7554/elife.90254).

The labels stand for the following.
B1: LINE1-full (parent)
chain: UACGUAGGUGGUUUUCCCCUGAUAGUGCUAAGGGGGCCUGGAAGUUUGGACUGGGCAGAGCUCAACACAGCGUGGCAAAGUGGCUGUGGCUAGACUGCCUCUCUGGAUUCCUCGUCACUCAGCAGGGCAUCUCUGAGAGAAAUGCC

The variants in this series derive from B1. In words: self-cleavage, relative activity (ratio to wild type); higher = more cleavage; in vitro, sequencing; the parent is a self-cleaving ribozyme.
As for UACGUAGGUGGUUUUCCCCUGAUAGUGCUAAGGGGGCCUGGAAGUUUGGACUGGGCAGAGCUCAACACAGCGUGGCAAAGUGGCUGUGGCUAGACUGCCUCUCUGGAUUCCUCGUCACUCAACAGGGCAUCUCUGAGAGAAGUGCC, the self-cleavage is 0.42.
With UACGUAGGUGGUUUUCCCCUGAUAGUGCUAAGGGGGCCUGGAAGUUUGGACUGGGCAGAGCUCAACACAGCGUGGCAAAGUGGCUGUGGCUAGACUGCCUCUCUGGAUUCCUCGUCACUCAGGAGGGCAUCUCUGAGAGUAAUGCC, the self-cleavage amounted to 1.27.
As for UACGUAGGUGGUUUUCCCCUGAUAGUGCUAAGGGGGCCUGGAAGUUUGGACUGGGCAGAGCUCAACACAGCGUGGCAAAGUGGCUGUGGCUAGACUGCCUCUCUGGAUUCCUCGUCACUCACCAGGGCAUCUCUGUGAGAAAUGCC, the figure is 1.96; as for UACGUAGGUGGUUUUCCCCUGAUAGUGCUAAGGGGGCCUGGAAGUUUGGACUGGGCAGAGCUCAACACAGCGUGGCAAAGUGGCUGUGGCUAGACUGCCUCUCUGGAUUCCUCGUCACUCAGCCGGGCAUCUCUGAGAGAAAUGCC, 1.56.
For UACGUAGGUGGUUUUCCCCUGAUAGUGCUAAGGGGGCCUGGAAGUUUGGACUGGGCAGAGCUCAACACAGCGUGGCAAAGUGGCUGUGGCUAGACUGCCUCUCUGGAUUCCUCGUCACUCAGCGGGGCAUCUCUGAGAGAAAUGCC the value was 0.98.
As for UACGUAGGUGGUUUUCCCCUGAUAGUGCUAAGGGGGCCUGGAAGUUUGGACUGGGCAGAGCUCAACACAGCGUGGCAAAGUGGCUGUGGCUAGACUGCCUCUCUGGAUUCCUCGUCACUCUGCAGGGCAUCUCCGAGAGAAAUGCC, the self-cleavage was 1.35.
In the case of UACGUAGGUGGUUUUCCCCUGAUAGUGCUAAGGGGGCCUGGAAGUUUGGACUGGGCAGAGCUCAACACAGCGUGGCAAAGUGGCUGUGGCUAGACUGCCUCUCUGGAUUCCUCGUCACUCAGUAGGGCAUCUCUGAGGGAAAUGCC, the self-cleavage is 1.91.
For UACGUAGGUGGUUUUCCCCUGAUAGUGCUAAGGGGGCCUGGAAGUUUGGACUGGGCAGAGCUCAACACAGCGUGGCAAAGUGGCUGUGGCUAGACUGCCUCUCUGGAUUCCUCGUCACUCAACAGGGCAACUCUGAGAGAAAUGCC the value was 2.13.
As for UACGUAGGUGGUUUUCCCCUGAUAGUGCUAAGGGGGCCUGGAAGUUUGGACUGGGCAGAGCUCAACACAGCGUGGCAAAGUGGCUGUGGCUAGACUGCCUCUCUGGAUUCCUCGUCACUCAACAGGGCACCUCUGAGAGAAAUGCC, the figure is 1.91; as for UACGUAGGUGGUUUUCCCCUGAUAGUGCUAAGGGGGCCUGGAAGUUUGGACUGGGCAGAGCUCAACACAGCGUGGCAAAGUGGCUGUGGCUAGACUGCCUCUCUGGAUUCCUCGUCACUCAGUACGGCAUCUCUGAGAGAAAUGCC, 1.1; as for UACGUAGGUGGUUUUCCCCUGAUAGUGCUAAGGGGGCCUGGAAGUUUGGACUGGGCAGAGCUCAACACAGCGUGGCAAAGUGGCUGUGGCUAGACUGCCUCUCUGGAUUCCUCGUCACUCAGCCGGGCACCUCUGAGAGAAAUGCC, 1.84.
For UACGUAGGUGGUUUUCCCCUGAUAGUGCUAAGGGGGCCUGGAAGUUUGGACUGGGCAGAGCUCAACACAGCGUGGCAAAGUGGCUGUGGCUAGACUGCCUCUCUGGAUUCCUCGUCACUCAGUAGGGCAUCUCUGGGAGAAAUGCC the value was 1.49; for UACGUAGGUGGUUUUCCCCUGAUAGUGCUAAGGGGGCCUGGAAGUUUGGACUGGGCAGAGCUCAACACAGCGUGGCAAAGUGGCUGUGGCUAGACUGCCUCUCUGGAUUCCUCGUCACUCAACAGGGCAUCUCUGAGGGAAAUGCC, 0.78.
On to UACGUAGGUGGUUUUCCCCUGAUAGUGCUAAGGGGGCCUGGAAGUUUGGACUGGGCAGAGCUCAACACAGCGUGGCAAAGUGGCUGUGGCUAGACUGCCUCUCUGGAUUCCUCGUCACUCAGUAGGGCACCUCUGAGAGAAAUGCC, for which the self-cleavage was 1.74.
In the case of UACGUAGGUGGUUUUCCCCUGAUAGUGCUAAGGGGGCCUGGAAGUUUGGACUGGGCAGAGCUCAACACAGCGUGGCAAAGUGGCUGUGGCUAGACUGCCUCUCUGGAUUCCUCGUCACUCAGUAGGGCAACUCUGAGAGAAAUGCC, the self-cleavage stood at 1.72.
For UACGUAGGUGGUUUUCCCCUGAUAGUGCUAAGGGGGCCUGGAAGUUUGGACUGGGCAGAGCUCAACACAGCGUGGCAAAGUGGCUGUGGCUAGACUGCCUCUCUGGAUUCCUCGUCACUCAGCCGGGCAUCUCUGAGAGAAGUGCC the value was 0.53.
For the variant UACGUAGGUGGUUUUCCCCUGAUAGUGCUAAGGGGGCCUGGAAGUUUGGACUGGGCAGAGCUCAACACAGCGUGGCAAAGUGGCUGUGGCUAGACUGCCUCUCUGGAUUCCUCGUCACUCAACAGGGCAUCUCUGAGAGAAACGCC, the self-cleavage was 1.11.
For UACGUAGGUGGUUUUCCCCUGAUAGUGCUAAGGGGGCCUGGAAGUUUGGACUGGGCAGAGCUCAACACAGCGUGGCAAAGUGGCUGUGGCUAGACUGCCUCUCUGGAUUCCUCGUCACUCAGGAGGGCAUCCCUGAGAGAAAUGCC the value was 1.43; for UACGUAGGUGGUUUUCCCCUGAUAGUGCUAAGGGGGCCUGGAAGUUUGGACUGGGCAGAGCUCAACACAGCGUGGCAAAGUGGCUGUGGCUAGACUGCCUCUCUGGAUUCCUCGUCACUCAUCACGGCAUCUCUGAGAGAAAUGCC, 2.14.
As for UACGUAGGUGGUUUUCCCCUGAUAGUGCUAAGGGGGCCUGGAAGUUUGGACUGGGCAGAGCUCAACACAGCGUGGCAAAGUGGCUGUGGCUAGACUGCCUCUCUGGAUUCCUCGUCACUCUGCAGGGCAUCACUGAGAGAAAUGCC, the figure is 1.36; as for UACGUAGGUGGUUUUCCCCUGAUAGUGCUAAGGGGGCCUGGAAGUUUGGACUGGGCAGAGCUCAACACAGCGUGGCAAAGUGGCUGUGGCUAGACUGCCUCUCUGGAUUCCUCGUCACUCAUUAGGGCAUCUCUGAGAGAAAUGCC, 0.8; as for UACGUAGGUGGUUUUCCCCUGAUAGUGCUAAGGGGGCCUGGAAGUUUGGACUGGGCAGAGCUCAACACAGCGUGGCAAAGUGGCUGUGGCUAGACUGCCUCUCUGGAUUCCUCGUCACUCAGUAGGGCAUCACUGAGAGAAAUGCC, 1.13.
As for UACGUAGGUGGUUUUCCCCUGAUAGUGCUAAGGGGGCCUGGAAGUUUGGACUGGGCAGAGCUCAACACAGCGUGGCAAAGUGGCUGUGGCUAGACUGCCUCUCUGGAUUCCUCGUCACUCAACAGGGCAUCUCCGAGAGAAAUGCC, the figure is 1.43.
As to UACGUAGGUGGUUUUCCCCUGAUAGUGCUAAGGGGGCCUGGAAGUUUGGACUGGGCAGAGCUCAACACAGCGUGGCAAAGUGGCUGUGGCUAGACUGCCUCUCUGGAUUCCUCGUCACUCAGAAGGGCAUCUCUGAGAGAAAUGCC, the self-cleavage came to 1.19.
For UACGUAGGUGGUUUUCCCCUGAUAGUGCUAAGGGGGCCUGGAAGUUUGGACUGGGCAGAGCUCAACACAGCGUGGCAAAGUGGCUGUGGCUAGACUGCCUCUCUGGAUUCCUCGUCACUCAGGAGGGCAUCUCUGAGAGAAAUGCC the value was 1.36; for UACGUAGGUGGUUUUCCCCUGAUAGUGCUAAGGGGGCCUGGAAGUUUGGACUGGGCAGAGCUCAACACAGCGUGGCAAAGUGGCUGUGGCUAGACUGCCUCUCUGGAUUCCUCGUCACUCAGUAGGGCAUCUCUGAGAGAAAUGCC, 1.16; for UACGUAGGUGGUUUUCCCCUGAUAGUGCUAAGGGGGCCUGGAAGUUUGGACUGGGCAGAGCUCAACACAGCGUGGCAAAGUGGCUGUGGCUAGACUGCCUCUCUGGAUUCCUCGUCACUCAGGGGGGCAUCUCUGAGAGAAAUGCC, 0.74.
Consider UACGUAGGUGGUUUUCCCCUGAUAGUGCUAAGGGGGCCUGGAAGUUUGGACUGGGCAGAGCUCAACACAGCGUGGCAAAGUGGCUGUGGCUAGACUGCCUCUCUGGAUUCCUCGUCACUCAUCAGGGCACCUCUGAGAGAAAUGCC, for which the self-cleavage came out at 1.21.
As for UACGUAGGUGGUUUUCCCCUGAUAGUGCUAAGGGGGCCUGGAAGUUUGGACUGGGCAGAGCUCAACACAGCGUGGCAAAGUGGCUGUGGCUAGACUGCCUCUCUGGAUUCCUCGUCACUCACCAGGGCAUCUCCGAGAGAAAUGCC, the figure is 1.68; as for UACGUAGGUGGUUUUCCCCUGAUAGUGCUAAGGGGGCCUGGAAGUUUGGACUGGGCAGAGCUCAACACAGCGUGGCAAAGUGGCUGUGGCUAGACUGCCUCUCUGGAUUCCUCGUCACUCAGAAGGGCAUCUCUGAGAGAGAUGCC, 1.35.
With UACGUAGGUGGUUUUCCCCUGAUAGUGCUAAGGGGGCCUGGAAGUUUGGACUGGGCAGAGCUCAACACAGCGUGGCAAAGUGGCUGUGGCUAGACUGCCUCUCUGGAUUCCUCGUCACUCUGCAGGGCAUCUCUGAGAGAAAGGCC, the self-cleavage turned out to be 2.
Take UACGUAGGUGGUUUUCCCCUGAUAGUGCUAAGGGGGCCUGGAAGUUUGGACUGGGCAGAGCUCAACACAGCGUGGCAAAGUGGCUGUGGCUAGACUGCCUCUCUGGAUUCCUCGUCACUCAGCCGGGCAUCUCUGAGCGAAAUGCC: the self-cleavage was 1.86.
As for UACGUAGGUGGUUUUCCCCUGAUAGUGCUAAGGGGGCCUGGAAGUUUGGACUGGGCAGAGCUCAACACAGCGUGGCAAAGUGGCUGUGGCUAGACUGCCUCUCUGGAUUCCUCGUCACUCAGCCGGGCGUCUCUGAGAGAAAUGCC, the figure is 0.66.
In the case of UACGUAGGUGGUUUUCCCCUGAUAGUGCUAAGGGGGCCUGGAAGUUUGGACUGGGCAGAGCUCAACACAGCGUGGCAAAGUGGCUGUGGCUAGACUGCCUCUCUGGAUUCCUCGUCACUCAGAAGGGCAUCUCUGAGAGGAAUGCC, the self-cleavage worked out at 1.42.
As for UACGUAGGUGGUUUUCCCCUGAUAGUGCUAAGGGGGCCUGGAAGUUUGGACUGGGCAGAGCUCAACACAGCGUGGCAAAGUGGCUGUGGCUAGACUGCCUCUCUGGAUUCCUCGUCACUCACCAGGGCAUCUCUGAGAGGAAUGCC, the figure is 1.36.
For UACGUAGGUGGUUUUCCCCUGAUAGUGCUAAGGGGGCCUGGAAGUUUGGACUGGGCAGAGCUCAACACAGCGUGGCAAAGUGGCUGUGGCUAGACUGCCUCUCUGGAUUCCUCGUCACUCAACAGGGCAUCUCUGAGAGUAAUGCC the value was 1.47; for UACGUAGGUGGUUUUCCCCUGAUAGUGCUAAGGGGGCCUGGAAGUUUGGACUGGGCAGAGCUCAACACAGCGUGGCAAAGUGGCUGUGGCUAGACUGCCUCUCUGGAUUCCUCGUCACUCAACAGGGCAUCUCUGAGAGGAAUGCC, 0.53.
With UACGUAGGUGGUUUUCCCCUGAUAGUGCUAAGGGGGCCUGGAAGUUUGGACUGGGCAGAGCUCAACACAGCGUGGCAAAGUGGCUGUGGCUAGACUGCCUCUCUGGAUUCCUCGUCACUCAGAAGGGCAUCUCCGAGAGAAAUGCC, the self-cleavage worked out at 1.04.
For UACGUAGGUGGUUUUCCCCUGAUAGUGCUAAGGGGGCCUGGAAGUUUGGACUGGGCAGAGCUCAACACAGCGUGGCAAAGUGGCUGUGGCUAGACUGCCUCUCUGGAUUCCUCGUCACUCAGGAGGGCAUCUAUGAGAGAAAUGCC the value was 1.46.
